# Residue numbers refer to the chain shown, from its start.
# B1: humanized anti-5T4 antibody 833a with HC-41C mutation (antibody, human IgG1, kappa, V domains shown)
# VH: EVQLVESGGGLIQPGGSLRLSCAASGIDLSHYVVGWVRQACGKGLEWVSIIYGSGRTYYANWAKGRFTISKDNSKNTLYVRMNSLRAEDTAVYYCARDASVSVYYWGYFDLWGQGTLVTVSS
# VL: AYDMTQSPSSVSASVGDRVTITCQASQSIGSELAWYQQKPGKAPKLLIYRASTLESGVPSRFSGSGSGTDFTLTISSLQPEDFATYYCQQGYTYSEIDNAFGGGTKVEIKR
# B2: humanized anti-5T4 antibody 833d with HC-41C mutation (antibody, human IgG1, kappa, V domains shown)
# VH: QSLEESGGGLVQPGGSLRLSCAASGIDLSHYVVGWVRQACGKGLEWIGIIYGSGRTYYANWAKGRFTISRHNSKNTLYLQMNSLRAEDTAVYYCARDASVSVYYWGYFDLWGQGTLVTVSS
# VL: B1 VL with A1D, Y2I, D3Q, V11L, K42Q, D70E, L73F, F83L, G103Q, V107L
# B3: humanized anti-5T4 antibody 833c with HC-41C mutation (antibody, human IgG1, kappa, V domains shown)
# VH: B1 VH with V5E, I12V, Q13K, K71R, V80L, R81Q, Q114R
# VL: B1 VL with A1D, Y2I, D3Q, S10T, V11L, D70E, E81D, G103Q
# B4: humanized anti-5T4 antibody 833b with HC-41C mutation (antibody, human IgG1, kappa, V domains shown)
# VH: B1 VH with I12V, K71R, Y79F, V80L, A87V, Y94F
# VL: B1 VL
# B5: humanized anti-5T4 antibody 825b with HC-41C mutation (antibody, human IgG1, kappa, V domains shown)
# VH: EVQLEESGGGLVKPGGSLRLSCAASGIDLSSYGMGWVRQACGKGLEWVSIISRNSVTYYATWAKGRFTISRDNSKNTLYLQMNSLRAEDTAVYYCARRATYSGALGYFDIWGRGTLVTVSS
# VL: EIVMTQSPSSLSASVGDRVTITCQASENIYSTLAWYQQKPGKAPKLLIYDAFDLASGVPSRFSGSGSGTDYTLTISSLQPEDFATYYCQQGYSGTNVDNAFGQGTKLEIKR
# B6: humanized anti-5T4 antibody 825c with HC-41C mutation (antibody, human IgG1, kappa, V domains shown)
# VH: B5 VH
# VL: B5 VL with E1G, I2Y, V3D, L11V, S63K, D70E, Q103G, L107V
# B7: humanized anti-5T4 antibody 825a with HC-41C mutation (antibody, human IgG1, kappa, V domains shown)
# VH: B5 VH with E5V, G10D, V12A, K13Q, A24V, L78V, N83T, V92L, Y94F, R113Q
# VL: B5 VL
# B8: humanized anti-5T4 antibody 789b with HC-41C mutation (antibody, V domains shown)
# VH: EVQLLESGGSLVLPGGSLRLSCAASGFSLSSYWMSWVRQACGKGLEWVSIIAGRGSTYYASWAKGRFTISRDNSKNTLYMQMNSLRAEDTALYFCARVSSIYYTFNLWGQGTLVTVSS
# VL: EIVLTQSPSSLSASVGDRVTITCQSSQSVYSNNELSWYQQKPGKAPKLLIYYASTLASGVPSRFSGSGSGTDFTLTISSLQPEDFATYYCQGSYYSGSGWYYAFGQGTKLEIKR
# B9: humanized anti-5T4 antibody 789d with HC-41C mutation (antibody, V domains shown)
# VH: QSVEESGGGLVQPGGSLRLSCAASGFSLSSYWMSWVRQACGKGLEWIGIIAGRGSTYYASWAKGRFTISRDNSKNTLYLQMNSLRAEDTAVYYCARVSSIYYTFNLWGQGTLVTVSS
# VL: B8 VL with E1A, I2Q, Q106G, L110V
# B10: humanized anti-5T4 antibody 789c with HC-41C mutation (antibody, V domains shown)
# VH: B9 VH
# VL: DIVMTQSPDSLAVSLGERATINCQSSQSVYSNNELSWYQQKPGQPPKLLIYYASTLASGVPDRFSGSGSGTDFTLTISSLQAEDVAVYYCQGSYYSGSGWYYAFGGGTKLEIKR
# Target: T1, human 5T4 oncofoetal antigen (human, UniProt Q13641 32-420)
# T1 construct: whole, on cells; also called hu 5T4; human 5T4 antigen
# T1 sequence (looked up): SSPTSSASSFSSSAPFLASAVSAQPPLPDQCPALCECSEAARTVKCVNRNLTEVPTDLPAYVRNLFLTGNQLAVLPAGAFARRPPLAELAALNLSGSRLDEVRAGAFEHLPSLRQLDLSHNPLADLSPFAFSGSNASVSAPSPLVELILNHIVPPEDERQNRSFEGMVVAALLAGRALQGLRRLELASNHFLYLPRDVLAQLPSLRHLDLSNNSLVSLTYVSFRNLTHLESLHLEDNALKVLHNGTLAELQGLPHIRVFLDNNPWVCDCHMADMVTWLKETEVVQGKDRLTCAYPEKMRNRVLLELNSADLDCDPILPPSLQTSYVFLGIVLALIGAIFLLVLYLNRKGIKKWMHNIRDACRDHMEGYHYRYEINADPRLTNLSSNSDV
# Assay: flow cytometry, CHOZN cells expressing hu 5T4
row,Binder,EC50
1,B1,0.22 µg/mL
2,B2,0.18 µg/mL
3,B3,0.18 µg/mL
4,B4,0.15 µg/mL
5,B5,0.16 µg/mL
6,B6,0.21 µg/mL
7,B7,0.15 µg/mL
8,B8,0.15 µg/mL
9,B9,0.12 µg/mL
10,B10,0.2 µg/mL

# Target: T2, cynomolgus monkey 5T4 antigen (cynomolgus monkey, UniProt Q4R8Y9 35-420)
# T2 construct: whole, on cells; also called cyno 5T4
# T2 sequence (looked up): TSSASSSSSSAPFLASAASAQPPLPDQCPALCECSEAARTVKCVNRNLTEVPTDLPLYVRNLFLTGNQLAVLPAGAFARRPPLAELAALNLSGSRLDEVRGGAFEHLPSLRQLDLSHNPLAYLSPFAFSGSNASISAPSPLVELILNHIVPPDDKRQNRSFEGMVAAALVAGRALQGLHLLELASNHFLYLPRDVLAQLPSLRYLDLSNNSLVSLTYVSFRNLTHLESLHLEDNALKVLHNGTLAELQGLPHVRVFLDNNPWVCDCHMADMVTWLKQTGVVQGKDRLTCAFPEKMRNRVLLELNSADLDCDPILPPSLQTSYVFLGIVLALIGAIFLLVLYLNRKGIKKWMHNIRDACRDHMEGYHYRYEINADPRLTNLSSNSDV
# Assay: flow cytometry, CHOZN cells expressing cyno 5T4
row,Binder,EC50
1,B1,0.12 µg/mL
2,B2,0.16 µg/mL
3,B3,0.17 µg/mL
4,B4,0.18 µg/mL
5,B5,0.46 µg/mL
6,B6,0.42 µg/mL
7,B7,0.53 µg/mL
8,B8,0.24 µg/mL
9,B9,0.15 µg/mL
10,B10,0.21 µg/mL

# Source: patent publication US20210317231A1 (BYONDIS B V, published 2021)
